Results reported in the emibetuzumab library of Makowski et al. (2022).

B1: VH:VL chains; a variant is named by its letters at X, in order (parent)
chain 1: QVQLVQSGAEVKKPGASVKVSCKASGYTFTDYXMHWVRQAPGQGLEWMGXVNPNXXXTTYNQKFEGRVTMTTDTSTSTAYMELRSLRSDDTAVYYCARXNXLDXWGQGTTVTVSS
chain 2: DIQMTQSPSSLSASVGDRVTITCSVSSSVSSIYLHWYQQKPGKAPKLLIYSTSNLASGVPSRFSGSGSGTDFTLTISSLQPEDFATYYCQVYSGYPLTFGGGTKVEIK

Variants of: B1
Assay: yeast display scFab, FACS + sequencing
In short: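 The non-specific binding call was based on sorted and sequenced yeast displaying a heavy-chain CDR mutant scFab library. Labelling used anti-Myc with biotinylated ovalbumin (260 μg/mL in PBSB, 3 h, room temperature) or soluble membrane proteins (130 μg/mL, 20 min on ice), and FACS collected the top 25% and bottom 10% of binders in two replicates. Positive meant present in ≥3 of 4 pooled positive samples and in no negatives, and negative meant the converse.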

Row | Variant | non-specific binding call
1 | VRGGGDAA | no binding
2 | YRGKAAGD | binds
3 | YRGKAAGV | binds
4 | VRGGDDGV | no binding
5 | VRGGDDGS | no binding
6 | YRGKASVD | binds
7 | YRGGDAAF | no binding
8 | VRGGSDGY | no binding
9 | VRGGDAAS | no binding
10 | VRGGDDVF | no binding
11 | YRGGGDGF | no binding
12 | FRGGGFVV | binds
13 | FRGGGSAA | binds
14 | FRGKADVD | binds
15 | YRGGSAGA | binds
16 | YRGGSAGF | binds
17 | FRGGSSAA | binds
18 | DRGGDDLV | no binding
19 | YRGGGVVD | binds
20 | VRGGGVGV | binds
21 | FRGKDASA | no binding
22 | YRGKDAAY | binds
23 | FRGGGSVS | binds
24 | YRGGGDVS | binds

Row | Variant | non-specific binding call
25 | DRGGGDAS | no binding
26 | YRGGDDLY | no binding
27 | YRGGDDLV | no binding
28 | VRGGDAVY chain 1 G44D | no binding
29 | YRGKAAVD | binds
30 | DRGGSSAA | no binding
31 | YRGGGDWV | no binding
32 | YRGKASGD | binds
33 | FRGGSAVY | binds
34 | FRGGSAVD | binds
35 | YRGGTAAA | binds
36 | SRGGGALD | no binding
37 | FRGGDSAD | binds
38 | YRGGGALS | binds
39 | FRGGSVGY | binds
40 | YRGGTFGF | binds
41 | YRGGSSGY | binds
42 | VRGGDDWA | no binding
43 | VRGGDDWF | no binding
44 | DRGGDSLD | no binding
45 | FRGGSSGV | binds
46 | FRGGSSGS | binds
47 | YRGGDDSV | no binding
48 | YRGGDDSS | no binding

Row | Variant | non-specific binding call
49 | YRGGDYLV | no binding
50 | VRGKAAVS | binds
51 | YRGGSDGS | no binding
52 | SRGGGVGY | binds
53 | VRGGGDGY | no binding
54 | FRGGGSGF | binds
55 | FRGGGSGV | binds
56 | FRGGGSGS | binds
57 | FRGGGSLD | binds
58 | VRGKAFVV | binds
59 | YRGKDALA | binds
60 | YRGGGFAD | binds
61 | VRGGGFGD | binds
62 | VRGGGFGV | no binding
63 | VRGGGSAA | binds
64 | YRGKDASD | binds
65 | YRGGGYLV | no binding
66 | ARGGDDGA | no binding
67 | FRGGGAVS | binds
68 | FRGGGAVA | binds
69 | FRGGSAGD | binds
70 | VRGGSDVD | no binding
71 | VRGGSDVA | no binding
72 | YRGGGSAA | binds

Row | Variant | non-specific binding call
73 | FRGGGDWD | no binding
74 | YRGGTSVD | binds
75 | VRGGDAVS | no binding
76 | VRGGDAVA | no binding
77 | YRGGASGA | binds
78 | YRGGGDSV | no binding
79 | YRGGDSAS | no binding
80 | YRGGDSAY | no binding
81 | DRGGDAVA | no binding
82 | DRGGDAVV | no binding
83 | YRGGGAAF | binds
84 | DRGGDDGS | no binding
85 | ARGKASSY | no binding
86 | YRGGDYGA | no binding
87 | YRGKDAGA | binds
88 | FRGGGSSA | binds
89 | SRGGDDVA | no binding
90 | FRGGDYGS | binds
91 | YRGKAFGV | binds
92 | FRGGASSD | binds
93 | DRGGDDWV | no binding
94 | DRGGDDWY | no binding
95 | FRGGGSWA | binds
96 | YRGGSDVA | no binding

Row | Variant | non-specific binding call
97 | YRGKASWD | binds
98 | DRGGSAGD | no binding
99 | DRGGDSSS | no binding
100 | DRGGDDAA | no binding
101 | DRGGDDAD | no binding
102 | VRGGGAWV | binds
103 | DRGGDDVD | no binding
104 | DRGGDDVV | no binding
105 | DRGGDDVY | no binding
106 | YRGGGSVF | binds
107 | YRGGDSSY | no binding
108 | VRGGGAAY | no binding
109 | VRGGGAAV | no binding
110 | DRGGGDGV | no binding
111 | YRGGASWV | binds
112 | VRGGGDWV | no binding
113 | YRGGGYGF | binds
114 | FRGGGVGV | binds
115 | YRGGDYSV | no binding
116 | SRGGSALA | no binding
117 | YRGGGSGS | binds
118 | DRGGDVSD | binds
